Article PMC7793260, “MreC and MreD balance the interaction between the elongasome proteins PBP2 and RodA” (PLoS Genetics, 2020)
Substitutions are numbered along the chain they refer to.

How the values were obtained:
Test in all cases: FRET or BRET; as the two-plasmid FRET, cells treated with mecillinam (2 mg/L) for two mass doublings
Conditions in all cases: partners not purified
[1] = molecular target: T1, PBP2 (wild type), fused to mKO or to mCherry (E. coli, UniProt P0AD65 1-633)
T1 construct: PBP2, peptidoglycan transpeptidase of the E. coli elongasome, wild type; mKO-PBP2 in all others; also called mKO-PBP2^WT; mKO-PBP2; source: E. coli LMC500, expressed from plasmid (15 uM IPTG), in fixed cells; not shown: mKO (donor construct, pWA004) or mCherry (acceptor construct), N-terminal, kept
T1 sequence (looked up): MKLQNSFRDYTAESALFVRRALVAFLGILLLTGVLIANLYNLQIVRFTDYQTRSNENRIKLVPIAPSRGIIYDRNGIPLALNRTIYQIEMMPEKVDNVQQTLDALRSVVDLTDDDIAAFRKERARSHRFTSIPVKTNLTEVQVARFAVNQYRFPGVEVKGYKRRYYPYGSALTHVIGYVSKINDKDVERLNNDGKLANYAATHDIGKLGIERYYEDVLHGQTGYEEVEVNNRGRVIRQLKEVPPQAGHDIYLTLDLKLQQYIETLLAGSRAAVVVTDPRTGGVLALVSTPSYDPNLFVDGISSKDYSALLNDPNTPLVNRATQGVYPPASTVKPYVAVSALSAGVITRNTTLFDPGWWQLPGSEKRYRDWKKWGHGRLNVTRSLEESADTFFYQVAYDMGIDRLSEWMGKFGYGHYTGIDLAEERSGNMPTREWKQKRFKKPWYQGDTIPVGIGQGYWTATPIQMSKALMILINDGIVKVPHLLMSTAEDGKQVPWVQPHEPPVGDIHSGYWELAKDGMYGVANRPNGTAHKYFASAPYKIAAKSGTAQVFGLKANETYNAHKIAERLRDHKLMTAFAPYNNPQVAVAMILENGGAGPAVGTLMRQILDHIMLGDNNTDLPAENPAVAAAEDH

mKO-PBP2^L61R = molecular target: T2, mKO-PBP2^L61R (E. coli, UniProt P0AD65 1-633, L61R)
T2 construct: PBP2 of E. coli with L61R (hyperactive variant); made from pWA004 by mutagenesis PCR; also called hyperactive PBP2^L61R; source: E. coli LMC500, expressed from plasmid (15 uM IPTG), in fixed cells; not shown: mKO, N-terminal, kept
T2 sequence (looked up): T1 sequence (looked up) with L61R

mKO-^MalF37PBP2 = molecular target: T3, mKO-^MalF37PBP2 (E. coli, UniProt P02916 1-37; P0AD65 46-633)
T3 construct: MalF of E. coli, the first 37 residues (cytoplasmic N-terminus and transmembrane helix), amplified from the MG1655 genome; PBP2 of E. coli excluding the first 45 residues (NT and TMH removed, periplasmic domain kept); also called PBP2 with the NT and TMH of MalF; source: E. coli LMC500, expressed from plasmid (15 uM IPTG), in fixed cells; not shown: mKO, N-terminal, kept
T3 chain (looked up): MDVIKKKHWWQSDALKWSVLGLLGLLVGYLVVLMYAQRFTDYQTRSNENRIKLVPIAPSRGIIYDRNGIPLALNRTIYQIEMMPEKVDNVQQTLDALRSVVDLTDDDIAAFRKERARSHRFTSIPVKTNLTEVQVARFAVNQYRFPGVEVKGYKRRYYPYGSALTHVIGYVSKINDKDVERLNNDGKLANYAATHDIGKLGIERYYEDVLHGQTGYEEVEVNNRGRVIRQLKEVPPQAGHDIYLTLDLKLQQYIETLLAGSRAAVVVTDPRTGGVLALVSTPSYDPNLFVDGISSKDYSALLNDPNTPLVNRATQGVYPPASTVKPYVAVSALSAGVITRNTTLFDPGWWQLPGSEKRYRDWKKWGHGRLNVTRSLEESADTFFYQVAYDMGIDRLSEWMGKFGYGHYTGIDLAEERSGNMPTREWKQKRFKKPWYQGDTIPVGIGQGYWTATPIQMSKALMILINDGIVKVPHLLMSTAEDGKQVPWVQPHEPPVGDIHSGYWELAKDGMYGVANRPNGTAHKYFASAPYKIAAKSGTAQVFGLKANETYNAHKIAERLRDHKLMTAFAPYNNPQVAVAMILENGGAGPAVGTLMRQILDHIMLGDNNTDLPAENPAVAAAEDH

EfA (acceptor FRET efficiency) [1]: 7.9% | EfA (acceptor FRET efficiency) (mKO-PBP2^L61R): 6.3% | EfA (acceptor FRET efficiency) (mKO-^MalF37PBP2): 3%
B1: RodA (wild type), fused to mCherry or to mKO (enzyme, E. coli, UniProt P0ABG7 1-370, looked up)
chain: MTDNPNKKTFWDKVHLDPTMLLILLALLVYSALVIWSASGQDIGMMERKIGQIAMGLVIMVVMAQIPPRVYEGWAPYLYIICIILLVAVDAFGAISKGAQRWLDLGIVRFQPSEIAKIAVPLMVARFINRDVCPPSLKNTGIALVLIFMPTLLVAAQPDLGTSILVALSGLFVLFLSGLSWRLIGVAVVLVAAFIPILWFFLMHDYQRQRVMMLLDPESDPLGAGYHIIQSKIAIGSGGLRGKGWLHGTQSQLEFLPERHTDFIFAVLAEELGLVGILILLALYILLIMRGLWIAARAQTTFGRVMAGGLMLILFVYVFVNIGMVSGILPVVGVPLPLVSYGGSALIVLMAGFGIVMSIHTHRKMLSKSV
notes: RodA, peptidoglycan glycosyltransferase of the E. coli elongasome; wild-type rodA gene; mCh-RodA in all others; also called mCh-RodA; mKO-RodA; source: E. coli LMC500, expressed from plasmid (15 uM IPTG), in fixed cells; not shown: mCherry (acceptor construct, pSAV047-RodA) or mKO (donor construct, pXL56), N-terminal, kept
